Test results taken from article PMC12858062 (2026).

B1: B2-Fc (anti-Pfs48/45 nanobody B2 fused to hinge and Fc of human IgG1) (Fc fusion)
chain: QVQLQESGGGLVQAGGSLRLSCAASGRTFSKYAMAWFRQAPGKEREFVAAISGAGGATVHAAPVKGRFTISRDNAKNMGYLQMNSLKPEDTAVYYCAQTGSTGWPAGRTYTYDYWGQGTQVTVSS
B2: Anti-Pfs48/45 monoclonal antibody TB31F (humanised version of 85RF45.1) (antibody, V domains shown)
VH: EVQLVQSGGGLVQPGGSLRLSCAASGFTFNNYWMSWVRQAPGKGLEWVSSISNIGGTIYYPDSVKGRFTISRDNSKNTLYLQMNSLRAEDTAVYYCTRDLRMSDYFDYWGQGTMVTVSS
VL: NFMLTQPHSVSESPGKTVTISCTRSTGNIGSNYVSWYQQRPGSSPTTVIYRDDQRPSGVPDRFSGSIDRSSNSASLTISGLKTEDEADYYCHSYSTGMYIFGGGTKLTVL
B3: C3-Fc (anti-Pfs48/45 nanobody C3 fused to hinge and Fc of human IgG1) (Fc fusion)
chain: QVQLQESGGGSVQPGGSLRLSCAASGFTFSSYWMYWVRQAPEKGLEWVSVINPGGRITIYTDSVKGRFAVSRDNAKNTVYLQLNSLKPEDTAVYYCAASRTYSNSYSPSDYDYWGQGTQVTVSS
B4: A4-Fc (anti-Pfs48/45 nanobody A4 fused to hinge and Fc of human IgG1) (Fc fusion)
chain: QVQLQESGGGLVQPGGSLRLSCAASGFTFSSYWMYWVRETPGKGLEWVSVINPGGRITIYTDSVKGRFTVSRDNAKNTVYLQMNSLKPEDTAVYFCAADLEYRAQLYAYWGQGTQVTVSS

target: Stabilised Pfs48/45 D3 (D3.mAgE1), PNGase F-deglycosylated, with C-terminal hexa-histidine tag and AviTag (P. falciparum); assay: BLI

B1 was tested. Which koff did it give?
Its koff is 0.00476 s⁻¹.

How did the koff turn out when B2 was run?
The koff was 0.00239 s⁻¹.

How did the koff turn out when B3 was run?
Its koff is 0.0106 s⁻¹.

With B4 as the binder, how does the koff read?
Its koff is 0.00851 s⁻¹.
